Patent US20130005646A1 (Novo Nordisk, published 2013)
Starred links: 1 amine or outer side, 2 acyl side, 3 side chain; linkers in the order of their positions; H or OH if unused. Positions of bridges follow the written chain, without caps; N, C: chain ends. Groups on a side chain read outwards from the residue. No end group written: not given here. *: point of attachment. X1 = (S)‑4‑Carboxy‑4‑(19-carboxynonadecanoylamino)butyryl, O=C(O)CCCCCCCCCCCCCCCCCCC(=O)N[C@@H](CCC(=O)*)C(=O)O; C20 diacid = O=C(O)CCCCCCCCCCCCCCCCCCC(=O)*; γGlu = O=C(O)[C@H](CCC(=O)[*:2])N[*:1]; AEEA = NCCOCCOCC(=O)O

Experiments:
[1] = target: T1, human calcitonin (a) receptor (human, UniProt P30988 25-474); experiment: cell-based or functional assay
T1 sequence (looked up): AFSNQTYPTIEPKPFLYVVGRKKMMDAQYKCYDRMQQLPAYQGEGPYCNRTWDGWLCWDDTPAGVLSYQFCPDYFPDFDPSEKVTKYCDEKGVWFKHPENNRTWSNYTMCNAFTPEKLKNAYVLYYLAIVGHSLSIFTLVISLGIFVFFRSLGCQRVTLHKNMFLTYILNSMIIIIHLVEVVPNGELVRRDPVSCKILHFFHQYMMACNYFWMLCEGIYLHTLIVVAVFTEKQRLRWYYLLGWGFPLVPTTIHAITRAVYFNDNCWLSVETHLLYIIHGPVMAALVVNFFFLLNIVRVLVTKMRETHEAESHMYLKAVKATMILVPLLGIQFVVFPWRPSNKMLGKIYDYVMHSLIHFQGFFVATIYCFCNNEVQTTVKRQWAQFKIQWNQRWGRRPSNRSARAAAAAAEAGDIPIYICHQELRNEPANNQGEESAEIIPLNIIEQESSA

[2] = target: T2, human amylin 3(a) receptor (human calcitonin receptor + RAMP-3) (human, UniProt P30988 25-474; O60896 24-148); experiment: cell-based or functional assay
T2 sequence (looked up) 1: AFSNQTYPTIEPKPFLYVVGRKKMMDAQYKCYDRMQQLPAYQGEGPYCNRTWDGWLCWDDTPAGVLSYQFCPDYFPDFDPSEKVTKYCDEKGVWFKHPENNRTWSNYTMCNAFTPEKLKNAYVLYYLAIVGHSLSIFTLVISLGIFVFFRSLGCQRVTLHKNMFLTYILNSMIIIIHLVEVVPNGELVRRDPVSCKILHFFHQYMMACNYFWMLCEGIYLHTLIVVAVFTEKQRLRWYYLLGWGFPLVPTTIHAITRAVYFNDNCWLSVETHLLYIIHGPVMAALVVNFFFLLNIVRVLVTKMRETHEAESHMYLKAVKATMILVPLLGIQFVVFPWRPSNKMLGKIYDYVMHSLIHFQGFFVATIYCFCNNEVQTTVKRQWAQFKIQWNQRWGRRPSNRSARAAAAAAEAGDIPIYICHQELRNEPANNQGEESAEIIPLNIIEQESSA
T2 sequence (looked up) 2: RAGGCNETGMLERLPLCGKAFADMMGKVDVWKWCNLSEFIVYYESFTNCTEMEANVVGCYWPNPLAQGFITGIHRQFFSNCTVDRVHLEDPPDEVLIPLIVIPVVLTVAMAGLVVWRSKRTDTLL

Binder	CTa receptor human EC50 [1]	Amylin receptor human EC50 [2]
X1-HCNTATCATQRLAEFLVRSSNNFGPILPPTNVGSNTP-NH2 (disulfide 2-7; SMILES CC[C@H](C)[C@H](NC(=O)[C@@H]1CCCN1C(=O)CNC(=O)[C@H](Cc1ccccc1)NC(=O)[C@H](CC(N)=O)NC(=O)[C@H](CC(N)=O)NC(=O)[C@H](CO)NC(=O)[C@H](CO)NC(=O)[C@H](CCCNC(=N)N)NC(=O)[C@@H](NC(=O)[C@H](CC(C)C)NC(=O)[C@H](Cc1ccccc1)NC(=O)[C@H](CCC(=O)O)NC(=O)[C@H](C)NC(=O)[C@H](CC(C)C)NC(=O)[C@H](CCCNC(=N)N)NC(=O)[C@H](CCC(N)=O)NC(=O)[C@@H](NC(=O)[C@H](C)NC(=O)[C@@H]1CSSC[C@H](NC(=O)[C@H](Cc2c[nH]cn2)NC(=O)CC[C@H](NC(=O)CCCCCCCCCCCCCCCCCCC(=O)O)C(=O)O)C(=O)N[C@@H](CC(N)=O)C(=O)N[C@@H]([C@@H](C)O)C(=O)N[C@@H](C)C(=O)N[C@@H]([C@@H](C)O)C(=O)N1)[C@@H](C)O)C(C)C)C(=O)N[C@@H](CC(C)C)C(=O)N1CCC[C@H]1C(=O)N1CCC[C@H]1C(=O)N[C@H](C(=O)N[C@@H](CC(N)=O)C(=O)N[C@H](C(=O)NCC(=O)N[C@@H](CO)C(=O)N[C@@H](CC(N)=O)C(=O)N[C@H](C(=O)N1CCC[C@H]1C(N)=O)[C@@H](C)O)C(C)C)[C@@H](C)O) [N-alpha-[(S)-4-Carboxy-4-(19-carboxynonadecanoylamino)butyryl]-[His1,Glu14,Arg18,Pro37]-pramlintide]	0.022 nM	0.0415 nM
KCNTATCATQRLAEFLHHSSNNFGK([AEEA-AEEA-γGlu-19‑carboxyheptadecanoyl])ILSSTNVGSHTY-NH2 (disulfide 2-7)	0.111 nM	0.301 nM
{C20 diacid-γGlu}-KCNTATCATQKLAEFLHHSSNNFGPILPPTNVGSNTP-NH2 (disulfide 2-7; SMILES CC[C@H](C)[C@H](NC(=O)[C@@H]1CCCN1C(=O)CNC(=O)[C@H](Cc1ccccc1)NC(=O)[C@H](CC(N)=O)NC(=O)[C@H](CC(N)=O)NC(=O)[C@H](CO)NC(=O)[C@H](CO)NC(=O)[C@H](Cc1c[nH]cn1)NC(=O)[C@H](Cc1c[nH]cn1)NC(=O)[C@H](CC(C)C)NC(=O)[C@H](Cc1ccccc1)NC(=O)[C@H](CCC(=O)O)NC(=O)[C@H](C)NC(=O)[C@H](CC(C)C)NC(=O)[C@H](CCCCN)NC(=O)[C@H](CCC(N)=O)NC(=O)[C@@H](NC(=O)[C@H](C)NC(=O)[C@@H]1CSSC[C@H](NC(=O)[C@H](CCCCN)NC(=O)CC[C@H](NC(=O)CCCCCCCCCCCCCCCCCCC(=O)O)C(=O)O)C(=O)N[C@@H](CC(N)=O)C(=O)N[C@@H]([C@@H](C)O)C(=O)N[C@@H](C)C(=O)N[C@@H]([C@@H](C)O)C(=O)N1)[C@@H](C)O)C(=O)N[C@@H](CC(C)C)C(=O)N1CCC[C@H]1C(=O)N1CCC[C@H]1C(=O)N[C@H](C(=O)N[C@@H](CC(N)=O)C(=O)N[C@H](C(=O)NCC(=O)N[C@@H](CO)C(=O)N[C@@H](CC(N)=O)C(=O)N[C@H](C(=O)N1CCC[C@H]1C(N)=O)[C@@H](C)O)C(C)C)[C@@H](C)O) [N-alpha-[(S)-4-Carboxy-4-(19-carboxynonadecanoylamino)butyryl]-[Lys11,Glu14,His17,Pro37]-pramlintide]	0.083 nM	0.0805 nM
KCNTATCATQRLANFLHHSSK([AEEA-AEEA-γGlu-19‑carboxyheptadecanoyl])NFGPILSPTNVGSHTY-NH2 (disulfide 2-7)	0.889 nM	0.482 nM
KCNTATCATQRLAEFLHHSSK([AEEA-AEEA-γGlu-19‑carboxyheptadecanoyl])NFGPILSPTNVGSHTY-NH2 (disulfide 2-7)	0.347 nM	0.625 nM
